Assay [1] has as its target T1, cynomolgus monkey GITR-Fc (cynomolgus monkey (Macaca fascicularis)).
T1 construct: also called cyno GITR-Fc; cGITR-Fc
Put plainly: direct ELISA, IgG at 1 µg/ml. The method, then:
(§1) Off-target homologue binding risk for mVH/mVL (FIG. 8A), VH3/VL2 (FIG. 8B) and lead engineered IgG clones G-G10 (FIG. 8C), I-C2 (FIG. 8D) and D-A6 (FIG. 8E) was examined by direct ELISA on GITR-Fc orthologs and a panel of 13 human TNFRSF and immunoglobulin superfamily proteins (as labelled on each X-axis). Binding to human, cyno and murine GITR-Fcs (h/c/mGITR-Fc) was performed at an IgG concentration of 1 μg/ml. Binding to all other proteins was performed at an IgG concentration of 10 μg/ml.
(§2) Anti-GITR antibodies were tested for polyreactivity by ELISA. Purified, recombinant, target and non-target antigens were coated in 96-well Nunc maxisorp plates at 100 ng per well in carbonate buffer, at 4° C. overnight. Plates were then washed 3× with PBS, blocked with 1% BSA in PBS, then washed 3× with PBS-Tween20. A dilution series of primary antibodies was then applied, plates were washed 3× with PBS-Tween20 followed by application of goat anti-human kappa chain-HRP 1:4,000 secondary antibody. Wells were then washed 3× with PBS-Tween20 and 2× with PBS, 100 μl TMB peroxidase substrate was added per well, the was reaction stopped by adding 100 μl 2M H₂SO₄ and absorbances were read at 450 nm. Anti-GITR antibodies were also tested for binding specificity by flow cytometry. HuT78 cells were activated by incubation with anti-CD3/anti-CD28 beads for 3 days. Naïve cells were incubated in media alone. At the end of the incubation the cells were harvested and the beads removed from the activated cells using a magnet. Cells were incubated with viability dye and then stained with anti-GITR antibodies at 4° C. […] Binding of VH1/VI1 and D-A6 IgG1 proteins were detected by subsequent incubation with a PE labelled goat anti-human IgG. Cells were fixed with 4% PFA before being stored in PBS at 4° C. overnight. Cells were analysed the next day using a BD Fortessa flow cytometer running Diva software. Analysis was performed using FlowJo software.
Background: An ELISA detects its analyte on a solid surface through an enzyme-linked reagent.

The target of a further assay is T2, human GITR-Fc (human, UniProt Q9Y5U5 26-161).
T2 construct: Recombinant GITR-Fc; also called hGITR-Fc; hGITR; not shown: Fc part
T2 sequence (looked up): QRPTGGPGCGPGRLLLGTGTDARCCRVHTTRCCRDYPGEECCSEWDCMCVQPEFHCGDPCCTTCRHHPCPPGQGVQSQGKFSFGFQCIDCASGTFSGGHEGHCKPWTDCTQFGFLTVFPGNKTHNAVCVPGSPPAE
The experiment in a line: direct ELISA, IgG at 1 µg/ml. How it is done: as §1, §2

A further assay addresses T3, hICAM-1-Fc (human, UniProt P05362).
T3 construct: recombinant Fc fusion; Member of the panel m8
The experiment in a line: direct ELISA on coated protein, IgG at 10 µg/ml, OD 450 nm. How it is done:
as §1, §2

A further assay deals with T4, hLTBR-Fc (human, UniProt P36941).
T4 construct: recombinant Fc fusion; Member of the panel m8
The description is as above. The method, then:
as §1, §2

The next assay has as its target T5, hDR6-Fc (human, UniProt O75509).
T5 construct: recombinant Fc fusion; Member of the panel m8
T5 sequence (fusion chain, looked up): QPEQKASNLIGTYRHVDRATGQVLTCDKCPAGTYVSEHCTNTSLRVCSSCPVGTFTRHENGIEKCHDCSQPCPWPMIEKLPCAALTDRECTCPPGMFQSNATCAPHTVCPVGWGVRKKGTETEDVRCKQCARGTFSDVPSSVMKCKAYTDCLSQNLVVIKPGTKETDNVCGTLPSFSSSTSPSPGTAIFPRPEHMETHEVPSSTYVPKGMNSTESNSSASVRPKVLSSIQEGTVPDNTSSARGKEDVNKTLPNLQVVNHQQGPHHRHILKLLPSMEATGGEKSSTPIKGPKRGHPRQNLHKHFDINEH
The description is as above. How it is done: as §1, §2

For another assay, the target named is T6, hCD4 (human, UniProt P01730).
T6 construct: purified recombinant protein; Member of the panel m8
The description is as above. The method, then: as §1, §2

Assay [2] has as its target T1, cynomolgus monkey GITR-Fc. Put plainly: direct titration ELISA on coated cyno GITR-Fc, IgG1 0.001-1 µg/ml, OD 450 nm. How it is done: To coat Greiner Bio-One High bind ELISA plates, target proteins were diluted to 1 μg/ml in carbonate buffer and added at 100 μl per well, at 4° C., o/n. Coated plates were washed 3× with PBS pH7.4, blocked with 1% BSA in PBS (380 μl/well) for 1 hr at RT, then washed 3× with PBS-Tween 20 (PBST). GITR antibodies (100 μl/well; diluted in PBST) were then added and then incubated 1 hr at RT. Plates were then washed 3× with PBST and goat anti-human kappa chain-HRP added (100 μl/well) at RT, for 1 hr. Plates were then washed 3× with PBST and twice with PBS before the addition of 100 μl TMB per well. Reactions were stopped by adding 100 μl 2M H₂SO₄/well and OD was read on a plate reader at 450 nm. IgG binding analysis via ELISA on negatively charged biomolecular surfaces were performed as previously described (see Mouquet et al., 2010, Nature 467: 591-595).
The 17 purified IgGs described above were then tested for binding to human and cyno GITR-Fc in direct titration ELISA format.

The target of assay [3] is T7, cynomolgus monkey GITR at the cell surface (cynomolgus monkey).
T7 construct: whole, on cells; also called cyno GITR+ cells
The experiment in a line: flow cytometry, cyno GITR-transfected murine blastoma cells, 10,000-13.7 ng/ml. The method, then: Concentration-dependent binding to GITR at the cell surface was analysed using flow cytometry.

The target of assay [4] is T8, human GITR at the cell surface (human, UniProt Q9Y5U5 26-241).
T8 construct: whole, on cells; The cell type is named in the assay field of each row; also called human GITR+ cells; CHO-K1 human GITR+ cells
T8 sequence (looked up): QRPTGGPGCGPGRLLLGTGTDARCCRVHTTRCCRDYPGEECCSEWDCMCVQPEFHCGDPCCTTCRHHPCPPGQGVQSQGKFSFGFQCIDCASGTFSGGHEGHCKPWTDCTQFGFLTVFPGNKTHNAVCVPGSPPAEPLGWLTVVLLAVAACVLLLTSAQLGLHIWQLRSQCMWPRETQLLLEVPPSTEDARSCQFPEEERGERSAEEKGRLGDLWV
Put plainly: flow cytometry on CHO-K1 human GITR+ cells; competitor: soluble human GITRL.

By EC50 (read off the curve) is commonly meant the midpoint of the concentration-response curve.

T3 sequence (P05362 28-480 limits assumed): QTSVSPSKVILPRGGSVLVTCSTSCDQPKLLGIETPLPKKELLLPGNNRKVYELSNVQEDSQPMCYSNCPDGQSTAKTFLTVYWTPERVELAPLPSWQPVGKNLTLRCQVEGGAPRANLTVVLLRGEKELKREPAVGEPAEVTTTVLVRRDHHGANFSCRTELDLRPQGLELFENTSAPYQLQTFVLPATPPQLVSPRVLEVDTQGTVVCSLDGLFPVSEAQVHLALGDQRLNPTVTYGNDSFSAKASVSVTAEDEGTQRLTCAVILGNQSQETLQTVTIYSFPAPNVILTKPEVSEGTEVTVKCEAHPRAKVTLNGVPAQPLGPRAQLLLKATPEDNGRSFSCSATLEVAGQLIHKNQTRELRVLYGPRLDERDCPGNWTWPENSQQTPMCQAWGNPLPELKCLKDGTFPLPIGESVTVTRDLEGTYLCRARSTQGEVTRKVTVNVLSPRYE
T4 sequence (P36941 28-227 limits assumed): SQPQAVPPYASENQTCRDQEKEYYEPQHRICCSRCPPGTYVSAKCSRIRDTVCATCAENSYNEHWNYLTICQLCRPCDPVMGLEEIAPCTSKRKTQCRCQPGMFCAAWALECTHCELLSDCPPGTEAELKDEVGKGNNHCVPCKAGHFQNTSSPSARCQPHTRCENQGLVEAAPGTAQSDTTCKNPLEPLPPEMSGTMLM

B1: chimeric anti-GITR IgG1 mVH/mVL (6C8 murine v-domains) (antibody, V domains shown)
VH: QVTLKESGPGILKPSQTLSLTCSFSGFSLSTSGMGVGWIRQPSGKGLEWLAHIWWDDDKYYNPSLKSQLTISKDTSRNQVFLKITSVDTADAATYYCARTRRYFPFAYWGQGTLVTVSS
VL: DIVMTQSQKFMSTSVGDRVSVTCKASQNVGTNVAWYQQKPGQSPKALIYSASYRYSGVPDRFTGSGSGTDFTLTINNVHSEDLAEYFCQQYNTDPLTFGAGTKLEIK
notes: Full-length human IgG1, kappa; also called GITR-mVH/mVL; chimeric IgG
Turning to B1, the OD450 nm in assay [1] was > 1 OD450 nm; with human GITR-Fc it was > 3 OD450 nm. In addition, the binding result in the assay with hICAM-1-Fc, in the assay with hLTBR-Fc, with hDR6-Fc and with hCD4 was “no binding (tested: 10 µg/ml)” throughout. Further, the “EC50 (read off the curve)” value in [2] is ~0.05 µg/mL. Besides, the “concentration at maximum MFI” value in assay [3] is ~1110 ng/mL.

B2: D-A6 IgG1 (antibody, V domains shown)
VH: EVQLVESGGGLVQPGGSLRLSCAASGFSLSTSGYGVGWVRQAPGKGLEWLAHIWWDDDKYYVDSVKGRFTISRDNAKNSLYLQMNSLRAEDTAVYYCARTRQYFPFAYWGQGTLVTVSS
VL: EIVLTQSPATLSLSPGERATLSCRASQSVGSNLAWYQQKPGQAPRLLIYSASYRYTGIPARFSGSGSGTDFTLTISSLEPEDFAVYYCQQYSTDPLTFGGGTKVEIK
notes: Human IgG1
In the case of B2, the OD450 nm in assay [1] was > 1 OD450 nm; with human GITR-Fc, > 3 OD450 nm. Besides, the binding result with hICAM-1-Fc, with hLTBR-Fc, with hDR6-Fc and in the assay with hCD4 was “no binding (tested: 10 µg/ml)” each time. The “concentration at maximum MFI” value in assay [3] is ~1110 ng/mL. Also, the “fold reduction of binding signal in the presence of 10 µg/ml soluble GITRL” value in assay [4] is > 10 fold.

B3: G-G10 IgG1 (antibody, V domains shown)
VH: EVQLVESGGGLVQPGGSLRLSCAASGFSLSTFGYGVGWVRQAPGKGLEWLAHIWWDDDKYYVDSVKGRFTISRDNAKNSLYLQMNSLRAEDTAVYYCARTRQYFPFAYWGQGTLVTVSS
VL: EIVLTQSPATLSLSPGERATLSCRASQSVGTNLAWYQQKPGQAPRLLIYYASYRYTGIPARFSGSGSGTDFTLTISSLEPEDFAVYYCQQYSNDPLTFGGGTKVEIK
notes: Human IgG1
With B3, the OD450 nm was > 1 OD450 nm in assay [1] and > 3 OD450 nm in the assay with human GITR-Fc. Moreover, the binding result in the assay with hICAM-1-Fc, with hLTBR-Fc, in the assay with hDR6-Fc and with hCD4 was “no binding (tested: 10 µg/ml)” each time. In addition, in [3], the “concentration at maximum MFI” value was ~1110 ng/mL.

B4: I-C2 IgG1 (antibody, V domains shown)
VH: EVQLVESGGGLVQPGGSLRLSCAASGFSLSTSGYGVGWVRQAPGKGLEWLAHIWWDDDKYYVDSVKGRFTISRDNAKNSLYLQMNSLRAEDTAVYYCARTRLYFPFAYWGQGTLVTVSS
VL: EIVLTQSPATLSLSPGERATLSCRASQNVGSNLAWYQQKPGQAPRLLIYSASNRYSGIPARFSGSGSGTDFTLTISSLEPEDFAVYYCQQYSTDPLTFGGGTKVEIK
notes: Human IgG1
Turning to B4, the OD450 nm is > 1 OD450 nm in assay [1] and > 3 OD450 nm with human GITR-Fc. Moreover, the binding result in the assay with hICAM-1-Fc, in the assay with hLTBR-Fc, with hDR6-Fc and with hCD4 was “no binding (tested: 10 µg/ml)” throughout. Moreover, the “concentration at maximum MFI” value in assay [3] was ~1110 ng/mL.

B5: VH3/VL2 IgG1 (antibody, V domains shown)
VH: EVQLVESGGGLVQPGGSLRLSCAASGFSLSTSGMGVGWVRQAPGKGLEWLAHIWWDDDKYYVDSVKGRFTISRDNAKNSLYLQMNSLRAEDTAVYYCARTRRYFPFAYWGQGTLVTVSS
VL: EIVLTQSPATLSLSPGERATLSCRASQNVGTNVAWYQQKPGQAPRLLIYSASYRYSGIPARFSGSGSGTDFTLTISSLEPEDFAVYYCQQYNTDPLTFGGGTKVEIK
notes: Human IgG1; template of the mutagenesis library; also called G-VH3/VL2; VH3 family
Regarding B5, the figures for the OD450 nm (in assay [1]; with human GITR-Fc) were > 1 OD450 nm and > 3 OD450 nm, respectively. In addition, the binding result with hICAM-1-Fc, with hLTBR-Fc, in the assay with hDR6-Fc and with hCD4 was “no binding (tested: 10 µg/ml)” each time. Further, the “concentration at maximum MFI” value in assay [3] was ~1110 ng/mL.

For the origin of these results see patent publication US20190375846A1 (ULTRAHUMAN ONE, published 2019).
